Test results reported in patent US10221217.

Assays:
[1] = target: eOD_VH1-2_v6.0 (HIV-1 HxB2 (engineered)); test: dissociation constant, SPR (FIG. 2)
eOD_L260F = test: method not stated
eOD_N276D_N463D [2] = test: method not stated
eOD_L260F_N276D = test: method not stated
[3] = target: eOD_VH1-2_v4.0 (HIV-1 HxB2 (engineered)); test: method not stated
eOD_N276D = test: method not stated
[4] = target: eOD_VH1-2_v1.0 (HIV-1 HxB2 (engineered)); test: SPR
[5] = target: core_gp120_VH1-2_v2.0 (HIV-1 BaL (engineered)); test: SPR
[6] = target: eOD_VH1-2_v6.0 (HIV-1 HxB2 (engineered)); test: SPR, IgG captured by anti-human IgG, eOD as analyte, 1:1 kinetic fit
c1d1_N386D [7] = test: ITC, b12 IgG
[8] = target: OD(D386) (Human immunodeficiency virus type 1 group M subtype B (isolate HXB2) (HIV-1)) (UniProt P04578); test: SPR, IgG captured by anti-human IgG, construct as analyte
c1d1_N386D [9] = test: as above
c1d1_b10disulf [10] = test: as above
c1d1_b2021 [11] = test: as above
[12] = target: ODml(N386) (Human immunodeficiency virus type 1 group M subtype B (isolate HXB2) (HIV-1)) (UniProt P04578); test: as above
c2d1_b10disulf = test: as above
c1d1_v2 [13] = test: as above
[14] = target: ODml(D386) (Human immunodeficiency virus type 1 group M subtype B (isolate HXB2) (HIV-1)) (UniProt P04578); test: as above
[15] = target: wild-type core GP120 (Human immunodeficiency virus type 1 group M subtype B (isolate HXB2) (HIV-1)) (UniProt P04578); test: as above
[16] = target: ODml(d1_disulf) (Human immunodeficiency virus type 1 group M subtype B (isolate HXB2) (HIV-1)) (UniProt P04578); test: as above
c1d1_minglyc [17] = test: as above
eOD_VD(-)_g2 = test: Kd, method not stated; construct from 293 cells
eOD_VD(-)_g7 = test: Kd, method not stated; construct from 293 cells
eOD_VD(-)_g6 = test: Kd, method not stated; construct from 293 cells
eOD_VD(-)_g4 = test: Kd, method not stated; construct from 293 cells
eOD_VD(-)_g3 = test: Kd, method not stated; construct from 293 cells
eOD_VD(-)_g8 = test: Kd, method not stated; construct from 293 cells
eOD_VD(-)_g5 = test: Kd, method not stated; construct from 293 cells
c1d1_N386D [18] = test: SPR
c1d1_b2021 [19] = test: SPR
c1d1_v2 [20] = test: SPR
[21] = target: ODml(D386) (Human immunodeficiency virus type 1 group M subtype B (isolate HXB2) (HIV-1)) (UniProt P04578); test: SPR
[22] = target: ODml(d1_disulf) (Human immunodeficiency virus type 1 group M subtype B (isolate HXB2) (HIV-1)) (UniProt P04578); test: SPR
c1d1_minglyc [23] = test: SPR
[24] = target: eOD_VH1-2_v6.0 (HIV-1 HxB2 (engineered)); test: dissociation constant, method not stated
[25] = target: c1d1_v2 displayed on yeast (S. cerevisiae); test: Fab titration on yeast-displayed construct, flow cytometry
[26] = target: c1d1_N386D displayed on yeast (S. cerevisiae); test: as above
[27] = target: c1d1_b10disulf displayed on yeast (S. cerevisiae); test: as above
c1d1_N386D [28] = test: SPR and ITC
c1d1_N386D [29] = test: method not given
[30] = target: ODml(N386) (Human immunodeficiency virus type 1 group M subtype B (isolate HXB2) (HIV-1)) (UniProt P04578); test: SPR (value differs from Table 1)
[31] = target: eOD_T257S_S375W (HIV-1 HxB2 (engineered)); test: method not stated
eOD_T257S_L260F_S375W = test: method not stated
[32] = target: eOD_VH1-2_v6.0 (HIV-1 HxB2 (engineered)); test: dissociation constant, SPR (FIG. 3)
[33] = target: eOD_VH1-2_v6.0 (HIV-1 HxB2 (engineered)); test: SPR, IgG captured by anti-human IgG, eOD as analyte, 1:1 fit with mass transport
eOD_N276D_N463D [34] = test: method not stated; protein from 293 cells
c1d1_N386D [35] = test: ITC
c1d1_b10disulf [36] = test: ITC
c1d1_v2 [37] = test: ITC

germline VRC01 (antibody)
Kd [1]: 44 nM | Kd (eOD_L260F): > 500000 nM | Kd (eOD_N276D_N463D [2]): 380000 nM | Kd (eOD_L260F_N276D): 149000 nM | Kd [3]: 100 nM | Kd (eOD_N276D): 640000 nM | Kd [4]: 40000 nM | Kd [5]: 1600 nM | Kd [6]: 43.6 nM | koff [6]: 0.000683 s⁻¹ | kon [6]: 15700 M⁻¹ s⁻¹

b12 IgG (antibody)
Kd (c1d1_N386D [7]): 65 nM | Kd [8]: 1600 nM | Kd (c1d1_N386D [9]): 59 nM | Kd (c1d1_b10disulf [10]): 200 nM | Kd (c1d1_b2021 [11]): 120 nM | Kd [12]: 1900 nM | Kd (c2d1_b10disulf): 148 nM | Kd (c1d1_v2 [13]): 30 nM | Kd [14]: 530 nM | Kd [15]: 4.5 nM | Kd [16]: 175 nM | Kd (c1d1_minglyc [17]): 31 nM | Kd (eOD_VD(-)_g2): 96 nM | Kd (eOD_VD(-)_g7): 421 nM | Kd (eOD_VD(-)_g6): 514 nM | Kd (eOD_VD(-)_g4): 76 nM | Kd (eOD_VD(-)_g3): 21.6 nM | Kd (eOD_VD(-)_g8): 7 nM | Kd (eOD_VD(-)_g5): 132 nM | fold improvement of KD over OD(386) (c1d1_N386D [18]): 28 fold | fold improvement of KD over ODml (c1d1_N386D [18]): 9 fold | Kd (c1d1_b2021 [19]): 148 nM | fold weaker KD than c1d1 N386D (c1d1_b2021 [19]): 2.5 fold | fold improvement of KD over c1d1 N386D (c1d1_v2 [20]): 2 fold | fold improvement of KD over c1d1 b10disulf (c1d1_v2 [20]): 8 fold | fold improvement of KD over OD(D386) [21]: 3 fold | fold improvement of KD over OD(D386) [22]: 9 fold | fold improvement of KD over ODml [22]: 3 fold | fold improvement of KD over c1d1 N386D (c1d1_minglyc [23]): 2 fold

germline NIH45-46 (antibody)
Kd [24]: 408 nM

b12 Fab
Kd [25]: 11 nM | Kd [26]: 21 nM

VRC01 Fab
Kd [25]: > 50 nM | Kd [27]: > 50 nM | Kd [26]: > 50 nM

mature NIH45-46 (antibody)
Kd [24]: 3.8 nM

VRC01 IgG (mature) (antibody)
fold weaker KD than core gp120 (c1d1_N386D [28]): 35 to 50 fold | Kd (c1d1_N386D [9]): 139 nM | Kd [12]: 298 nM | Kd (c2d1_b10disulf): 289 nM | Kd (c1d1_v2 [13]): 249 nM | Kd [15]: 3.9 nM | Kd (c1d1_minglyc [17]): 7.5 nM | Kd (c1d1_N386D [29]): 80 nM | fold weaker affinity than core gp120 (c1d1_N386D [29]): > 10 fold | Kd [30]: 530 nM | Kd (eOD_L260F): 14.3 nM | Kd [31]: 90 nM | Kd (eOD_L260F_N276D): 11.9 nM | Kd (eOD_T257S_L260F_S375W): 8.6 nM | Kd (eOD_N276D): 27.8 nM | Kd [32]: 1.7 nM | Kd [33]: 1.7 nM | koff [33]: 0.000251 s⁻¹ | kon [33]: 148000 M⁻¹ s⁻¹ | Kd (eOD_N276D_N463D [34]): 4 nM | Kd (eOD_VD(-)_g2): 7 nM | Kd (eOD_VD(-)_g7): 109 nM | Kd (eOD_VD(-)_g6): 4.6 nM | Kd (eOD_VD(-)_g4): 7.3 nM | Kd (eOD_VD(-)_g3): 4.7 nM | Kd (eOD_VD(-)_g8): 2.8 nM | Kd (eOD_VD(-)_g5): 15 nM | Kd (c1d1_N386D [35]): 200 nM | Kd (c1d1_b10disulf [36]): 100 nM | fold improvement of KD over c1d1 N386D (c1d1_b10disulf [36]): 2 fold | Kd (c1d1_v2 [37]): 100 nM
